Measurements: publication PMC12871931, “The importin‐alpha superfamily engages in ethylene signaling by shuttling [sequence] INSENSITIVE 2 from the endoplasmic reticulum to the nucleus” (The Febs Journal, 2025)
Ends that are not written are not given here. * marks the point of attachment. 5‑TAMRA = 5-carboxytetramethylrhodamine, N-terminal label, CN(C)c1ccc2c(-c3ccc(C(=O)*)cc3C(=O)[O-])c3ccc(N(C)C)cc3[o+]c2c1

Key:
Conditions in all cases: both partners purified
[1] = target: T1, importin α4 (IMPα4), Arabidopsis thaliana, recombinant (Arabidopsis thaliana, UniProt O80480 1-538, biotin (Biotin-PEG4-NHS ester Protein Labeling Kit) in the BLI experiments only); assay: BLI; Octet K2; biotinylated ΔIBB_IMPα1 or IMPα4 loaded (15 μM, 600 s) on streptavidin biosensors; peptides/protein in solution; 100 mM Tris pH 7.0, 100 mM KCl, 0.01% Tween 20; room temperature; 300 s association, 300 s dissociation; dose response curves, 1:2 heterogeneous ligand model
T1 construct: importin alpha isoform 4 of Arabidopsis thaliana; gene isolated from A. thaliana, cloned into pETEV21a; Unlabelled in fluorescence polarisation; biotinylated and held on streptavidin tips in BLI; source: E. coli BL21pRARE, purified (Ni2+-IMAC)

[2] = target: T1, importin α4 (IMPα4), Arabidopsis …; assay: fluorescence polarisation; competition: TAMRA-NOP-1 and IMPα4 (6 μM) held constant, unlabelled competitor concentration varied; Logistic Fit in Origin; n = 3
[3] = target: T2, importin α2 (IMPα2), Arabidopsis thaliana, recombinant (Arabidopsis thaliana, UniProt F4JL11 1-535); assay: fluorescence polarisation; direct titration: TAMRA-NOP-1 constant at 250 nM, IMPα protein concentration varied; 50 μL samples; LS55 spectrometer; Kd by Logistic Fit in Origin; three independent measurements
T2 construct: importin alpha isoform 2 of Arabidopsis thaliana; gene isolated from A. thaliana, cloned into pETEV21a; source: E. coli BL21pRARE, purified (Ni2+-IMAC)

[4] = target: T3, importin α3 (IMPα3), Arabidopsis thaliana, recombinant (Arabidopsis thaliana, UniProt O04294 1-531); assay: as above
T3 construct: importin alpha isoform 3 of Arabidopsis thaliana; gene isolated from A. thaliana, cloned into pETEV21a; source: E. coli BL21pRARE, purified (Ni2+-IMAC)

[5] = target: T4, importin α6 (IMPα6), Arabidopsis thaliana, recombinant (Arabidopsis thaliana, UniProt Q9FWY7 1-538); assay: as above
T4 construct: importin alpha isoform 6 of Arabidopsis thaliana; gene synthesised by GenScript, cloned into pETEV21a; source: E. coli BL21pRARE, purified (Ni2+-IMAC)
T4 sequence (looked up): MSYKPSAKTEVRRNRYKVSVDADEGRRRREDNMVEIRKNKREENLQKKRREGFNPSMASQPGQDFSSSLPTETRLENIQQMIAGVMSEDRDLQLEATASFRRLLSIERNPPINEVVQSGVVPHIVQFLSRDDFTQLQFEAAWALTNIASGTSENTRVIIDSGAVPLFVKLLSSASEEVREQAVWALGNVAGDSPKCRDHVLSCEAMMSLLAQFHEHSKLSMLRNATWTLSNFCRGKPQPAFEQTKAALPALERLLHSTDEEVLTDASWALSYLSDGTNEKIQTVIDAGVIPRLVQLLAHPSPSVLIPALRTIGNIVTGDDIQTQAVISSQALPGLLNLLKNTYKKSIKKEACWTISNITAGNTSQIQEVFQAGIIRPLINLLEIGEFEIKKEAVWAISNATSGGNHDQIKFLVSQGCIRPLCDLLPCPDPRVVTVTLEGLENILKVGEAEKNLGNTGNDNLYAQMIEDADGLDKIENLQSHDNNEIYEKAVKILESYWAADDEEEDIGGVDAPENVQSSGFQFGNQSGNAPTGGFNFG

[6] = target: T1, importin α4 (IMPα4), Arabidopsis …; assay: as above
[7] = target: T5, importin α9 (IMPα9), Arabidopsis thaliana, recombinant (Arabidopsis thaliana, UniProt F4KF65 1-519); assay: as above
T5 construct: importin alpha isoform 9 of Arabidopsis thaliana; gene synthesised by GenScript, cloned into pETEV21a; source: E. coli BL21pRARE, purified (Ni2+-IMAC)
T5 sequence (looked up): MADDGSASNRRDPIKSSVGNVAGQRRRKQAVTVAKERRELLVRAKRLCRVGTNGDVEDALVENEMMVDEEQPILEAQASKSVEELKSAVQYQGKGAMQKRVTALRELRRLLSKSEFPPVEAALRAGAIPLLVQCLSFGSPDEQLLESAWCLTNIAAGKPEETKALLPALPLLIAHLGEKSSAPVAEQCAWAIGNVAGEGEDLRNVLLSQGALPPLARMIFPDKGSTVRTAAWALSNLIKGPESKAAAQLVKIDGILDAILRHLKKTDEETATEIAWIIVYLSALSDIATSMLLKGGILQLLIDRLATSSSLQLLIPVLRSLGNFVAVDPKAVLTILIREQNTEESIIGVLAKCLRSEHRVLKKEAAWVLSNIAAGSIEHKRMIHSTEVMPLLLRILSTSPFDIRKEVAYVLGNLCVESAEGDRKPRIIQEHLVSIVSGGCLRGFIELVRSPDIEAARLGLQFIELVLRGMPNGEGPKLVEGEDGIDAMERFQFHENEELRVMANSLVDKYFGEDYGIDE

[8] = target: T6, importin α5 (IMPα5), Arabidopsis thaliana, recombinant (Arabidopsis thaliana, UniProt Q9FJ09 1-519); assay: as above
T6 construct: importin alpha isoform 5 of Arabidopsis thaliana; gene synthesised by GenScript, cloned into pETEV21a; IMPα5 was additionally cloned into pETEV16b (N-terminal deca-His-tag); source: E. coli BL21pRARE, purified (Ni2+-IMAC)
T6 sequence (looked up): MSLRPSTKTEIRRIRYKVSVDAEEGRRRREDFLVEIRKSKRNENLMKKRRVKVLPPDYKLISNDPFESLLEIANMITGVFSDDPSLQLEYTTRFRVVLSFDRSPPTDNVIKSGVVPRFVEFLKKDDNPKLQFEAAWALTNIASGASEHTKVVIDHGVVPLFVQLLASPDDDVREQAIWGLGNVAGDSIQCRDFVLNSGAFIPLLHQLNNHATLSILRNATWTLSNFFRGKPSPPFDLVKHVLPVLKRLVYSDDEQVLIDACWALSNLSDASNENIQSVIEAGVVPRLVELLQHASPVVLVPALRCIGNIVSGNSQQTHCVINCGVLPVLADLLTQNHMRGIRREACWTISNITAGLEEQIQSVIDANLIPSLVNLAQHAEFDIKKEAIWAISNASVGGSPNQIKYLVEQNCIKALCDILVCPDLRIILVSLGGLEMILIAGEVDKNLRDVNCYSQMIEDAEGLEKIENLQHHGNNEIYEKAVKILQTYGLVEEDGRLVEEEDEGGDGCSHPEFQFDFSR

[9] = target: T7, importin α8 (IMPα8), Arabidopsis thaliana, recombinant (Arabidopsis thaliana, UniProt Q9FJ92 1-441); assay: as above
T7 construct: importin alpha isoform 8 of Arabidopsis thaliana (contains only ARM repeats, no IBB domain); gene isolated from A. thaliana, cloned into pETEV21a; source: E. coli BL21gold, purified (Ni2+-IMAC)
T7 sequence (looked up): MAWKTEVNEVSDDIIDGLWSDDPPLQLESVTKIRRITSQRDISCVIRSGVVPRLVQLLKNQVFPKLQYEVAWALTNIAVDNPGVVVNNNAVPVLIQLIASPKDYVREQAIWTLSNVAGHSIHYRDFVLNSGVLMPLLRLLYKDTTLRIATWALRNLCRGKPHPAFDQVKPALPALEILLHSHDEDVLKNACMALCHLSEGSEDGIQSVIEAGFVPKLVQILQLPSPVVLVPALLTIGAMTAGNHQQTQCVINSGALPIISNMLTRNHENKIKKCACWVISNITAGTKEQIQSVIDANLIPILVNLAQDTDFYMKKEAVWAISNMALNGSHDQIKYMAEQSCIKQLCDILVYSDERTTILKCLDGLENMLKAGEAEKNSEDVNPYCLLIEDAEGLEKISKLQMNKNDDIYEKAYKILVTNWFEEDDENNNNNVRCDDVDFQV

T1 sequence (O80480 whole entry, canonical isoform): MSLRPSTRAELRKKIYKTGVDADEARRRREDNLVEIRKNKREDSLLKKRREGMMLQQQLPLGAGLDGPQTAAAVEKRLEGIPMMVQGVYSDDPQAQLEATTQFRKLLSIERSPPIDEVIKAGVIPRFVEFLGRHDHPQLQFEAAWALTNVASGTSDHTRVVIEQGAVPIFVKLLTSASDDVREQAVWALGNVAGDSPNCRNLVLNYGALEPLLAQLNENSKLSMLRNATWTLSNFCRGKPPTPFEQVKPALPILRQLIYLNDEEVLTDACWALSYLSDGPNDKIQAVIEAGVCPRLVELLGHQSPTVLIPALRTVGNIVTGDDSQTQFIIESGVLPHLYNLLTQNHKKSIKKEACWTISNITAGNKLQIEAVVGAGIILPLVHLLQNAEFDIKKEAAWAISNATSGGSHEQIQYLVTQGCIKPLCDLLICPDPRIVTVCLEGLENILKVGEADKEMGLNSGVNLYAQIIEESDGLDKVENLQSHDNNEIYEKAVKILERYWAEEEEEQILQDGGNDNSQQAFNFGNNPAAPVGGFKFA
T2 sequence (F4JL11 whole entry, canonical isoform): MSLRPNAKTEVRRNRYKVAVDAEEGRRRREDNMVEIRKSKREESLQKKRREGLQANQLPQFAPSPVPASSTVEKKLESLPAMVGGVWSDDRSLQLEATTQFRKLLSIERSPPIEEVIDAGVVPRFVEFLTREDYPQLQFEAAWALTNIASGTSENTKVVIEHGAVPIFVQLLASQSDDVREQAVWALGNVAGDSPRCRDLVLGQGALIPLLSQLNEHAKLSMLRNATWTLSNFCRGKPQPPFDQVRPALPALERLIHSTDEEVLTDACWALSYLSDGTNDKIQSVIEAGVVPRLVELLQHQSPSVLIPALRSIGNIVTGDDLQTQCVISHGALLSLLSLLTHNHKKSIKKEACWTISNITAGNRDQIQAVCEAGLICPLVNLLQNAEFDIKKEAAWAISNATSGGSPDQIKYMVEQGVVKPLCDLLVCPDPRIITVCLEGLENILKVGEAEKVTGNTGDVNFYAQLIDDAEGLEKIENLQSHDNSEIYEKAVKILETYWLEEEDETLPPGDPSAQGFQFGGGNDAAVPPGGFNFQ
T3 sequence (O04294 whole entry, canonical isoform): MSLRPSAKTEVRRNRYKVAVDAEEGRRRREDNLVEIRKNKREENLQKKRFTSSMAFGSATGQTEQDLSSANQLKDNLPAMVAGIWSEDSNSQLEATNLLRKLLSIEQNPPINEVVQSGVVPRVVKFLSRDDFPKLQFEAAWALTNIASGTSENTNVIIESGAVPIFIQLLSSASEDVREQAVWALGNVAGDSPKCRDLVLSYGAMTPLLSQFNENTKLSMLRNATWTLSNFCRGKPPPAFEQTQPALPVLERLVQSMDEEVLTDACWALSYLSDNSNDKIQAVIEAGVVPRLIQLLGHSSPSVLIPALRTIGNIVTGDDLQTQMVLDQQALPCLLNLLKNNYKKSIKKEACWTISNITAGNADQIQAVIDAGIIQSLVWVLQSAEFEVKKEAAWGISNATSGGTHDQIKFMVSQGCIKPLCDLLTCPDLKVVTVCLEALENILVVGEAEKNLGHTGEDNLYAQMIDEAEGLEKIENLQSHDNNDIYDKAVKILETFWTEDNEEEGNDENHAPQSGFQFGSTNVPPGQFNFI

B1: GB1‐AtEIN2C^1215–1281 (domain or fragment, Arabidopsis thaliana, UniProt Q9S814 1215-1281, looked up)
chain: KGKCTTAVTLLDLIKDVEMAISCRKGRTGTAAGDVAFPKGKENLASVLKRYKRRLSNKPVGMNQDGP
notes: cloned into pETEV16b with a GB1-domain at the N terminus to enhance solubility; also called GB1_AtEIN2^1215–1281; shortened EIN2 CEND; source: E. coli BL21pRARE, purified (Ni2+-IMAC); not shown: GB1 domain, N-terminal, kept
Work on B1 yielded a Kd high [1] of 21.4 µM, a Kd low [1] of 0.455 µM and a Kd [2] of 22.1 ± 2.8 µM.

B2: NOP‐1 (EIN2 NLS peptide, EIN2 residues 1262–1269) (peptide)
peptide: LKRYKRRL
notes: 8 residues; The methods speak of amidated C-termini and acetylated N-termini of 'the D-ri-peptides'; whether this holds for NOP-1 is not clear; also called EIN2‐NLS core motif; basic EIN2‐NLS probe; source: synthetic peptide, bought: GenScript
For B2, the Kd [1] was 7.6 µM and the Kd [2] was 4.1 ± 0.4 µM.

B3: N41P‐1 (EIN2 residues 1229–1269) (peptide, UniProt Q9S814 1229-1269, looked up)
peptide: KDVEMAISCRKGRTGTAAGDVAFPKGKENLASVLKRYKRRL
notes: 41 residues; The methods speak of amidated C-termini and acetylated N-termini of 'the D-ri-peptides'; whether this holds for N41P-1 is not clear; also called extended EIN2‐NLS probe N41P‐1; source: synthetic peptide, bought: GenScript
B3 was tested, and the Kd [1] was 9.8 µM and the Kd [2] was 8.1 ± 1.1 µM.

B4: TAMRA‐NOP‐1 (EIN2 NLS peptide, N‐terminally labeled with 5‐TAMRA) (peptide)
peptide: {5‑TAMRA}-LKRYKRRL
notes: also called fluorescently labeled NOP‐1; source: synthetic peptide (solid-phase peptide synthesis, Fmoc, made in house)
With B4 the binding result [3] was “binds”, the binding result [4] was “binds” and the Kd [5] was 8.7 ± 1.5 µM. The Kd [6] was ~6 µM, the Kd [7] was 13.8 ± 0.9 µM and the Kd [8] was 12.9 ± 0.9 µM. For the same binder, the Kd [9] was 7.9 ± 0.2 µM.
